Results on one molecule are retold here after article PMC4808055 (Nature cell biology, 2015).

The target of this experiment is T1, yeast Twinfilin (Twf1), full-length (1-332) (yeast, UniProt P53250 1-332).
T1 sequence: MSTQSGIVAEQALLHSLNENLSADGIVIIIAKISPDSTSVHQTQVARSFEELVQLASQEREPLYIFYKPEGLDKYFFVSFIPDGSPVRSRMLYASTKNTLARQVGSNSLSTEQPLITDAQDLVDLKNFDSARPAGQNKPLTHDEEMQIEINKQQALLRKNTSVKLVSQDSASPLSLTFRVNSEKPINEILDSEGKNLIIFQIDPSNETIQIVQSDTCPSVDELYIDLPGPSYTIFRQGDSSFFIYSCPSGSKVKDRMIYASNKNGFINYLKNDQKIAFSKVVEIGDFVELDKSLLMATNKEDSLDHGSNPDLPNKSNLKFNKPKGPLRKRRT
Kind of experiment: negative-stain electron microscopy.

B1: N-Srv2 (1-259) (domain or fragment)
chain: MPDSKYTMQGYNLVKLLKRLEEATARLEDVTIYQEGYIQNKLEASKNNKPSDSGADANTTNEPSAENAPEVEQDPKCITAFQSYIGENIDPLVELSGKIDTVVLDALQLLKGGFQSQLTFLRAAVRSRKPDYSSQTFADSLRPINENIIKLGQLKESNRQSKYFAYLSALSEGAPLFSWVAVDTPVSMVTDFKDAAQFWTNRILKEYRESDPNAVEWVKKFLASFDNLKAYIKEYHTTGVSWKKDGMDFADAMAQSTKN
As to B1, the binding result is “binds”.
